Changes are numbered by the printed parent chain. Numbers in names are those of the source.
T1: Human CD3eg linker (human)
T1 construct: Single chain: epsilon and gamma subunits of human CD3 joined by a 29-mer linker, Flag-tag at the C-terminus; also called recombinant human CD3
T1 chain: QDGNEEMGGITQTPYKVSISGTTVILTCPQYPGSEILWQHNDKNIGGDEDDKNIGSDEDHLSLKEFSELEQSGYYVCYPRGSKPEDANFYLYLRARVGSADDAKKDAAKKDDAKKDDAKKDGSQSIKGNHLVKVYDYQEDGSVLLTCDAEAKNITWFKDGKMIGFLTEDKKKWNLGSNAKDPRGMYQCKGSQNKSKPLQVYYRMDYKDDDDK

B1: H183/L072 VH Y55Q (antibody, name in Kabat numbering, V domains shown)
VH: QVQLVESGGGLVQPGRSLRLSCAASGFTFSNAWMHWVRQAPGKGLEWVAQIKDKGNAQAAYYAPSVKGRFTISRDDSKNSIYLQMNSLKTEDTAVYYCHYVHYASASTVLPAFGVDAWGQGTTVTVSS
VL: DIVMTQSPLSLPVTPGEPASISCQASQELVHMNRNTYLHWYQQKPGQAPRLLIYKVSNRFPGVPDRFSGSGSGTDFTLKISRVEAEDVGVYYCAQGTSVPFTFGQGTKLEIK
B2: H183/L072 VH Y58I (antibody, name in Kabat numbering, V domains shown)
VH: B1 VH with Q58Y, Y61I
VL: B1 VL
B3: H183/L072 VH Y58F (antibody, name in Kabat numbering, V domains shown)
VH: B1 VH with Q58Y, Y61F
VL: B1 VL
B4: H183/L072 VH Y59Q (antibody, name in Kabat numbering, V domains shown)
VH: B1 VH with Q58Y, Y62Q
VL: B1 VL
B5: H183/L072 VH Y58T (antibody, name in Kabat numbering, V domains shown)
VH: B1 VH with Q58Y, Y61T
VL: B1 VL
B6: H183/L072 VH Y59H (antibody, name in Kabat numbering, V domains shown)
VH: B1 VH with Q58Y, Y62H
VL: B1 VL
B7: H183/L072 VH Y58V (antibody, name in Kabat numbering, V domains shown)
VH: B1 VH with Q58Y, Y61V
VL: B1 VL
B8: H183/L072 VH Y55R (antibody, name in Kabat numbering, V domains shown)
VH: B1 VH with Q58R
VL: B1 VL
B9: H183/L072 VH Y59G (antibody, name in Kabat numbering, V domains shown)
VH: B1 VH with Q58Y, Y62G
VL: B1 VL
B10: H183/L072 VH Y58Q (antibody, name in Kabat numbering, V domains shown)
VH: B1 VH with Q58Y, Y61Q
VL: B1 VL
B11: H183/L072 VH Y58E (antibody, name in Kabat numbering, V domains shown)
VH: B1 VH with Q58Y, Y61E
VL: B1 VL
B12: H183/L072 VH Y59W (antibody, name in Kabat numbering, V domains shown)
VH: B1 VH with Q58Y, Y62W
VL: B1 VL
B13: H183/L072 VH Y59E (antibody, name in Kabat numbering, V domains shown)
VH: B1 VH with Q58Y, Y62E
VL: B1 VL
B14: H183/L072 VH Y59D (antibody, name in Kabat numbering, V domains shown)
VH: B1 VH with Q58Y, Y62D
VL: B1 VL
B15: H183/L072 VH Y59R (antibody, name in Kabat numbering, V domains shown)
VH: B1 VH with Q58Y, Y62R
VL: B1 VL
B16: H183/L072 VH Y58L (antibody, name in Kabat numbering, V domains shown)
VH: B1 VH with Q58Y, Y61L
VL: B1 VL
B17: H183/L072 VH Y59V (antibody, name in Kabat numbering, V domains shown)
VH: B1 VH with Q58Y, Y62V
VL: B1 VL
B18: H183/L072 VH Y58D (antibody, name in Kabat numbering, V domains shown)
VH: B1 VH with Q58Y, Y61D
VL: B1 VL
B19: H183/L072 VH Y59I (antibody, name in Kabat numbering, V domains shown)
VH: B1 VH with Q58Y, Y62I
VL: B1 VL
B20: H183/L072 VH Y59A (antibody, name in Kabat numbering, V domains shown)
VH: B1 VH with Q58Y, Y62A
VL: B1 VL
B21: H183/L072 VH Y59F (antibody, name in Kabat numbering, V domains shown)
VH: B1 VH with Q58Y, Y62F
VL: B1 VL
B22: H183/L072 VH Y55S (antibody, name in Kabat numbering, V domains shown)
VH: B1 VH with Q58S
VL: B1 VL
B23: H183/L072 VH Y58P (antibody, name in Kabat numbering, V domains shown)
VH: B1 VH with Q58Y, Y61P
VL: B1 VL
B24: H183/L072 VH Y58R (antibody, name in Kabat numbering, V domains shown)
VH: B1 VH with Q58Y, Y61R
VL: B1 VL
B25: H183/L072 VH Y59N (antibody, name in Kabat numbering, V domains shown)
VH: B1 VH with Q58Y, Y62N
VL: B1 VL
B26: H183/L072 VH Y59P (antibody, name in Kabat numbering, V domains shown)
VH: B1 VH with Q58Y, Y62P
VL: B1 VL
B27: H183/L072 VH Y59L (antibody, name in Kabat numbering, V domains shown)
VH: B1 VH with Q58Y, Y62L
VL: B1 VL
B28: H183/L072 VH Y55T (antibody, name in Kabat numbering, V domains shown)
VH: B1 VH with Q58T
VL: B1 VL
B29: H183/L072 VH Y59K (antibody, name in Kabat numbering, V domains shown)
VH: B1 VH with Q58Y, Y62K
VL: B1 VL
B30: H183/L072 VH Y58K (antibody, name in Kabat numbering, V domains shown)
VH: B1 VH with Q58Y, Y61K
VL: B1 VL
B31: H183/L072 VH Y58H (antibody, name in Kabat numbering, V domains shown)
VH: B1 VH with Q58Y, Y61H
VL: B1 VL
B32: H183/L072 VH Y59S (antibody, name in Kabat numbering, V domains shown)
VH: B1 VH with Q58Y, Y62S
VL: B1 VL
B33: H183/L072 VH Y58M (antibody, name in Kabat numbering, V domains shown)
VH: B1 VH with Q58Y, Y61M
VL: B1 VL
B34: H183/L072 VH Y58W (antibody, name in Kabat numbering, V domains shown)
VH: B1 VH with Q58Y, Y61W
VL: B1 VL
B35: H183/L072 VH Y58N (antibody, name in Kabat numbering, V domains shown)
VH: B1 VH with Q58Y, Y61N
VL: B1 VL
B36: H183/L072 VH Y55W (antibody, name in Kabat numbering, V domains shown)
VH: B1 VH with Q58W
VL: B1 VL
B37: H183/L072 VH Y59T (antibody, name in Kabat numbering, V domains shown)
VH: B1 VH with Q58Y, Y62T
VL: B1 VL
B38: H183/L072 VH Y59M (antibody, name in Kabat numbering, V domains shown)
VH: B1 VH with Q58Y, Y62M
VL: B1 VL
B39: H183/L072 VH Y58S (antibody, name in Kabat numbering, V domains shown)
VH: B1 VH with Q58Y, Y61S
VL: B1 VL
B40: H183/L072 VH Y58A (antibody, name in Kabat numbering, V domains shown)
VH: B1 VH with Q58Y, Y61A
VL: B1 VL
B41: H183/L072 VH Y55V (antibody, name in Kabat numbering, V domains shown)
VH: B1 VH with Q58V
VL: B1 VL
B42: H183/L072 VH Y58G (antibody, name in Kabat numbering, V domains shown)
VH: B1 VH with Q58Y, Y61G
VL: B1 VL

Target: T1, Human CD3eg linker
Assay: Biacore SPR, vs template H183/L072

Compared with B1, B2 is lower in “fold change of affinity” value: 0.5 fold for the first, 0.3 fold for the second.

Going from B3 to B4, the “fold change of affinity” value falls from 1.4 fold to 1.1 fold.

Going from B5 to B6, the “fold change of affinity” value rises from 0.2 fold to 1.4 fold.

Compared with B7, B8 is higher in “fold change of affinity” value: 0.3 fold for the first, 0.4 fold for the second.

Going from B9 to B10, the “fold change of affinity” value falls from 1.1 fold to 0.3 fold.

First: B11
Second: B12
The “fold change of affinity” value of the first is lower: 0.2 fold for the first, 0.6 fold for the second.

B13 and B14 are the same in “fold change of affinity” value: 1.1 fold for the first, 1.1 fold for the second.

Going from B15 to B16, the “fold change of affinity” value falls from 1.3 fold to 0.4 fold.

Compared with B17, B18 is lower in “fold change of affinity” value: 1.2 fold for the first, 0 fold for the second.

First: B19
Second: B20
The “fold change of affinity” value of the first is lower: 0.9 fold for the first, 1 fold for the second.

Compared with B21, B22 is lower in “fold change of affinity” value: 0.6 fold for the first, 0 fold for the second.

B23 and B24 are the same in “fold change of affinity” value: 0.5 fold for the first, 0.5 fold for the second.

First: B25
Second: B26
The “fold change of affinity” value of the first is higher: 1.2 fold for the first, 0.7 fold for the second.

Compared with B27, B28 is lower in “fold change of affinity” value: 1 fold for the first, 0 fold for the second.

First: B29
Second: B30
The “fold change of affinity” value of the first is higher: 1.3 fold for the first, 0.6 fold for the second.

Compared with B31, B32 is higher in “fold change of affinity” value: 0.6 fold for the first, 1.1 fold for the second.

First: B33
Second: B34
The “fold change of affinity” value of the first is higher: 0.4 fold for the first, 0 fold for the second.

B35 and B36 are the same in “fold change of affinity” value: 0.5 fold for the first, 0.5 fold for the second.

Compared with B37, B38 is lower in “fold change of affinity” value: 1.2 fold for the first, 1 fold for the second.

Going from B39 to B40, the “fold change of affinity” value rises from 0.4 fold to 0.6 fold.

B41 and B42 are the same in “fold change of affinity” value: 0.3 fold for the first, 0.3 fold for the second.
